From paper PMC5507773

Biological target: LIMD1 (UniProt Q9UGP4)
Assay: co-IP of Xpr-LIMD1 with EYFP-AGO2
Conditions: reference: wild type; sites S387

binding against the reference: weaker
Substance: AGO2 (from UniProt Q9UKV8) S387A
